Reference: paper PMC7187349, “Preparative and Kinetic Analysis of β‐1,4‐ and β‐1,3‐Glucan Phosphorylases Informs Access to Human Milk Oligosaccharide Fragments and Analogues Thereof” (Chembiochem, 2019)

Legend:
Test in all cases: phosphorylase kinetics, synthetic direction
Assay type in all cases: biochemical, Acetivibrio thermocellus
Settings in all cases: acceptor cellobiose (1), matched acceptor; apparent
[1] = substrate: O=P(O)(O)O[C@H]1O[C@H](CO)[C@H](O)[C@H](O)[C@H]1O
Description: (§1) phosphorylase kinetics, synthetic direction on cellodextrin phosphorylase (CDP)

[2] = substrate: O=P(O)(O)O[C@H]1O[C@H](CO)[C@@H](O)[C@H](O)[C@H]1O
Description: as §1

[3] = substrate: N[C@H]1[C@@H](OP(=O)(O)O)O[C@H](CO)[C@@H](O)[C@@H]1O
Description: as §1

B1: cellodextrin phosphorylase (CDP) (Acetivibrio thermocellus) (protein)
chain: MITKVTARNNKITPVELLNQKFGNKINLGNFADAVFTDAAFKNVAGIANLPMKAPVMQVLMENCIVSKYLKQFVPDRSVCFVEEGQKFYIVLEDGQKIEVPEDVNKALKATVSDVKHWAGYLTEDGEHVIDLLKPAPGPHFYVNLLIGNRLGFKRTLQTTPKSVVDRFGRGSFRSHAATQVLATRFDMRQEENGFPANRQFYLYEDGKQIFYSALIDDNIVEATCKHSCNRTVIKYKTACNLEITRTIFLVPHKKGFPLATELQRIEIKNASDKARNLSITYTGMFGTGAVHAIFEDVTYTNVIMQSAALYNDKGEFIGITPDYYPEEFKQDTRFVTMIVRNGDEKSFPQSFCTDYNDFVGTGTLEHPAGGCNLNNKLNRKGPGFFALGAPFTVEPGKTVIIDTFTGLSSSKDNENYSDAVMLRELDNLLRYFEKSESVEETLNEIINFHENYGKYFQFNTGNKLFDSGFNRNLAFQVLYQTFMSRSFGQTQKGYREIGFREIQDLFASMYYFINIGYQDFVKELLFEWTANVYKMGYANHNFYWVGKQPGLYSDDSLWLLQAYYRYIIYTKDTSVLNEEVPVADGNNEKRAVRETLKAIIQYSACISVGDHGLPLLDLADWNDCLKIASNSIDGATKEKLYYEQLKKTNGKYGDRFMSDYSESVMNAFLLKLAIDHLAEIATLDNDTQLAQQMSELSKEVTDRIQKHAWKENFFARVLINRYKDGSYTYLGAKGDKLSADPNIDGVYFLNSFAWSVLSDVATDEQIAIMVDVIKKHLLTPYGLRLVTPADLNKIANDTATGHYFFGDRENGAVFKHASMMAVAALIKAAKKVKDNELAKEMARIAYFMIDLVLPYKNLENPFQVAGNPRICTQYINTDTGENIGPLLSGTATWLNLNLISLAGIEYTRDGISFNPILREEETQLNFTLKAPKCSYKFSITKPVGFARMESSEYELFVDGQKIDNTVIPMYTDEKEHIVTLKFK
notes: wild type, GH94, recombinant from Escherichia coli; homodimer
Km [1]: 9300 ± 1100 µM | kcat [1]: 0.60 ± 0.02 s⁻¹ | kcat/Km [1]: 60 M⁻¹ s⁻¹ | Km [2]: 3000 ± 600 µM | kcat [2]: 16.4 ± 0.7 s⁻¹ | kcat/Km [2]: 5500 M⁻¹ s⁻¹ | Km [3]: 1600 ± 200 µM | kcat [3]: 0.08 ± 0.003 s⁻¹ | kcat/Km [3]: 50 M⁻¹ s⁻¹
